Tested on: T1, Oc1ccc2ccc3c4ccccc4cc4ccc1c2c43
T1 construct: made in house; host or cells: Escherichia coli
Experiment: Kinetics of 3-OH-BaP sulfonation by partially purified cDNA-expressed SULT1B1
Type: biochemical, human
Details: other: apparent, 3-OH-BaP as substrate
Text: The expression of human SULT1A1*1, SULT1A3, SULT1B1, and SULT1E1 in Escherichia coli has been described previously ([Dajani et al. 1998]; [Wang et al. 1998]). We grew E. coli cells containing the respective sulfotransferase genes as described previously ([Falany et al. 1990], [1994]), and prepared 100,000g supernatant fractions for use in inhibition studies and for partial purification of the SULT enzymes. We purchased expressed SULT1A1*2 cytosolic extract from PanVera (Madison, WI) and used it as supplied.
The 100,000g supernatant fractions of SULT1A1*1, SULT1A3, SULT1B1, and SULT1E1 were partially purified by chromatographic methods ([Falany et al. 1990], [1994]). After the last step, a 3′-phosphoadenosine 5′-phosphate (PAP)-agarose affinity column, we dialyzed the fractions eluted with PAP with three changes of buffer to remove PAP before the assay of SULT activity with 3-OH-BaP as substrate. We analyzed active fractions by SDS-PAGE ([Laemmli 1970]) to assess the purity of each SULT enzyme. We stained the gels with Coomassie R-250 reagent and determined the percentage of protein present as each respective SULT enzyme by scanning densitometry.
We determined SULT activity with 3-OH-BaP as substrate by a fluorimetric assay of BaP-3-SO4 product formation, as described previously ([Wang et al. 2004]). […] Duplicate tubes were prepared for each incubation condition. We examined the kinetics of sulfonation in three liver cytosol fractions by systematically varying the concentration of 3-OH-BaP or PAPS. When the variable substrate was 3-OH-BaP, we used 12 concentrations in the range from 0.035 to 2.00 μM, and the concentration of PAPS was kept constant at 10 μM. […]
We determined the kinetic parameters for 3-OH-BaP sulfonation by partially purified preparations of the cDNA-expressed SULT isozymes under incubation conditions similar to those used for liver cytosol. […]
We calculated the enzyme kinetic parameters from studies with variable concentrations of 3-OH-BaP using nonlinear regression analysis and GraphPad 4.0 software (GraphPad Software, San Diego, CA). […]

SULT1B1 (Homo sapiens) gave a Km of 2.00 µM, a Vmax of 0.0097 µmol/min/mg and a Vmax/Km of 4900 µL/min/mg.

From publication PMC1257591, “In Vitro Inhibition of Human Hepatic and cDNA-Expressed Sulfotransferase Activity with 3-Hydroxybenzo[a]pyrene by Polychlorobiphenylols” (Environmental Health Perspectives, 2005)
